# Measurements published in paper PMC10199020.
# Biological target: NL-IL23R co-expressed with IL12Rβ1 (IL-23 receptor on cells) (UniProt Q5VWK5)
# Test: FRET or BRET; NanoBRET competition on living transfected HEK293T cells; 300 pM IL23-TMR displaced by unlabelled antagonist (concentration series or a single concentration); 1 h at 37 °C in HBSS with 1 mg/mL BSA
# Chain of NL-IL23R co-expressed with IL12Rβ1 (IL-23 receptor on cells) (Q5VWK5 24-629, chain 1 of 2, other chains not shown): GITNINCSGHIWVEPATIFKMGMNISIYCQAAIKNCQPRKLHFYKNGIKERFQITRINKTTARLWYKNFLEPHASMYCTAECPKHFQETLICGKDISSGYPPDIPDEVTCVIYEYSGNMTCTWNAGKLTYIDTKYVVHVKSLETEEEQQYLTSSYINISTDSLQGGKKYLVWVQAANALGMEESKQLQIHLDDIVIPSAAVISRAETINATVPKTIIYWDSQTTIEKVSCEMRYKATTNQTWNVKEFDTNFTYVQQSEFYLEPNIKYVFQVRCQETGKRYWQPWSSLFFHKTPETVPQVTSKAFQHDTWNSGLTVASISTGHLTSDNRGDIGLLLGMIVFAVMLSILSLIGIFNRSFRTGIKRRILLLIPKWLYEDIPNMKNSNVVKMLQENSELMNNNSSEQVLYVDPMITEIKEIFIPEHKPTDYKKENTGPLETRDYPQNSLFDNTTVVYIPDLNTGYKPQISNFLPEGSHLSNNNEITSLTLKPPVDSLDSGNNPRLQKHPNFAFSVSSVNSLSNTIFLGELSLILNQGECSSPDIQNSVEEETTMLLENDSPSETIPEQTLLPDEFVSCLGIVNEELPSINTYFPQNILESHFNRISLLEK
substance,measurement,value
IL12p80 (from UniProt P29460 23-328) (ligand),Ki,0.469 nM
